Earlier results on one substance are cited in patent US10603364B2, “Lysosomal targeting and uses thereof” (Shire Human Genetic Therapies, Inc., priority 2014, dated 2020).

The target of series [1] is M6P/IGF II receptor (cation-independent mannose-6-phosphate receptor) (Homo sapiens, UniProt P11717).
The next series has as its target IGF-I receptor (Homo sapiens, UniProt P08069).

Sequence of M6P/IGF II receptor (cation-independent mannose-6-phosphate receptor) (P11717 41-2491): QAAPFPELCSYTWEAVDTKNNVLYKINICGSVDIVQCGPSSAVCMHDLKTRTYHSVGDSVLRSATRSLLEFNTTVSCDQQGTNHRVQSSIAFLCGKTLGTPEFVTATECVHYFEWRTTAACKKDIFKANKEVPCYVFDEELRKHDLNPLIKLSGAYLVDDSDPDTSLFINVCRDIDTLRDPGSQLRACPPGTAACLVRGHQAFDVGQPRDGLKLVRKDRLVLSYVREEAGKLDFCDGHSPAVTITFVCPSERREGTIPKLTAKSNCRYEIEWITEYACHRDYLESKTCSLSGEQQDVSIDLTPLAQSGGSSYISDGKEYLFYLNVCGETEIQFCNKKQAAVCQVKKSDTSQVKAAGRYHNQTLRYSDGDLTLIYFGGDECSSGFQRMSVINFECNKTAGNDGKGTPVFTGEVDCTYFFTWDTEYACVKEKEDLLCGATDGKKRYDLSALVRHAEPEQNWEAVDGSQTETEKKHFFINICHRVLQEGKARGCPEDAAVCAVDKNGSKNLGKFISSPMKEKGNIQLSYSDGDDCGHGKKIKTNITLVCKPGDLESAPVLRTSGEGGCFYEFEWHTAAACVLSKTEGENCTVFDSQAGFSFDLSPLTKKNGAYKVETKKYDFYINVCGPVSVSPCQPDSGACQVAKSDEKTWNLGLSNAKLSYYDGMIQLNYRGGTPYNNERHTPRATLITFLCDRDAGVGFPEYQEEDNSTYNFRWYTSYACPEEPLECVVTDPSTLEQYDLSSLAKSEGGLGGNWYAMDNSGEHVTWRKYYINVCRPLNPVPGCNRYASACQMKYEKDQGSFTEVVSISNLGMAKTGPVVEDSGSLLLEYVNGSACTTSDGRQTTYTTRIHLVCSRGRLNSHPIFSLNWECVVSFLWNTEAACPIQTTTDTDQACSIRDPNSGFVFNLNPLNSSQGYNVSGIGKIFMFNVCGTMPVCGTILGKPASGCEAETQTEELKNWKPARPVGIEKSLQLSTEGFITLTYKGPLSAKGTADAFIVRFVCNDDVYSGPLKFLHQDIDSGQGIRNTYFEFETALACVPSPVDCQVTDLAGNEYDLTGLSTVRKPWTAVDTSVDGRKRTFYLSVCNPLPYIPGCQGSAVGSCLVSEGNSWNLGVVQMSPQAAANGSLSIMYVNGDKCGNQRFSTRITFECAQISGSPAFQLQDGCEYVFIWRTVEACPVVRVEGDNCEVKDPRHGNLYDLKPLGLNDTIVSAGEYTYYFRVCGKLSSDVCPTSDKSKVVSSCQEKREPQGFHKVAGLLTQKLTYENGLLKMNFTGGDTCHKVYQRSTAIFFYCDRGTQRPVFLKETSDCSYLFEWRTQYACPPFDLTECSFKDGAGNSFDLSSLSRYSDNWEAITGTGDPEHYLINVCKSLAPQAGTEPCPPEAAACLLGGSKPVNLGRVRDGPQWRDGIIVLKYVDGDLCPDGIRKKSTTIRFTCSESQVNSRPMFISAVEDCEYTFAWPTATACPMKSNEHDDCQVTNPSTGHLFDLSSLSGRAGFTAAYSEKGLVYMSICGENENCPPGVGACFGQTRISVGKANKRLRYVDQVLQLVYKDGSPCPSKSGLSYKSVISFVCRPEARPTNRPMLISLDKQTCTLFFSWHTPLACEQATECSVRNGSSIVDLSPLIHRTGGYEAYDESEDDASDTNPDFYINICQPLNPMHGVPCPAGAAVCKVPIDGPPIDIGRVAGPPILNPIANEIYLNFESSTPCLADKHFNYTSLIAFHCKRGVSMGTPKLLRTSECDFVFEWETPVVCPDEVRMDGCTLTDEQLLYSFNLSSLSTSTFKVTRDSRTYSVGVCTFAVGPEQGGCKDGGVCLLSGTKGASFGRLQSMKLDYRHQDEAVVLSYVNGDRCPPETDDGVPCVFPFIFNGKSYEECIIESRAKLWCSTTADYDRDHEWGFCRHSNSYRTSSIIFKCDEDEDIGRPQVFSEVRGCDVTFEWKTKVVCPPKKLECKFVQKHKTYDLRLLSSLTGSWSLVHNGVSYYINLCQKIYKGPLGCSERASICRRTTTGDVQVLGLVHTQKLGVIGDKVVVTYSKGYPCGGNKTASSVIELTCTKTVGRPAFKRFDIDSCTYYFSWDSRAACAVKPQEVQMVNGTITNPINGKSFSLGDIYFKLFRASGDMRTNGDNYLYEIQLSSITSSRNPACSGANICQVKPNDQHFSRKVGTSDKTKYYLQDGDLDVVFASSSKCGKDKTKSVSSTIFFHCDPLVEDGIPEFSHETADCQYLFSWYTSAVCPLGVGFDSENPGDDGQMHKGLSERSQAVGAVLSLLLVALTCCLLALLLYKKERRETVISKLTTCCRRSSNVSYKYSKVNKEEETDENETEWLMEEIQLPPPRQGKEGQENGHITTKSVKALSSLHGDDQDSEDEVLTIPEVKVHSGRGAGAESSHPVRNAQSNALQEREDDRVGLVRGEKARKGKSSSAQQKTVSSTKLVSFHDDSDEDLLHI
Sequence of IGF-I receptor (P08069 31-736 limits assumed, species assumed): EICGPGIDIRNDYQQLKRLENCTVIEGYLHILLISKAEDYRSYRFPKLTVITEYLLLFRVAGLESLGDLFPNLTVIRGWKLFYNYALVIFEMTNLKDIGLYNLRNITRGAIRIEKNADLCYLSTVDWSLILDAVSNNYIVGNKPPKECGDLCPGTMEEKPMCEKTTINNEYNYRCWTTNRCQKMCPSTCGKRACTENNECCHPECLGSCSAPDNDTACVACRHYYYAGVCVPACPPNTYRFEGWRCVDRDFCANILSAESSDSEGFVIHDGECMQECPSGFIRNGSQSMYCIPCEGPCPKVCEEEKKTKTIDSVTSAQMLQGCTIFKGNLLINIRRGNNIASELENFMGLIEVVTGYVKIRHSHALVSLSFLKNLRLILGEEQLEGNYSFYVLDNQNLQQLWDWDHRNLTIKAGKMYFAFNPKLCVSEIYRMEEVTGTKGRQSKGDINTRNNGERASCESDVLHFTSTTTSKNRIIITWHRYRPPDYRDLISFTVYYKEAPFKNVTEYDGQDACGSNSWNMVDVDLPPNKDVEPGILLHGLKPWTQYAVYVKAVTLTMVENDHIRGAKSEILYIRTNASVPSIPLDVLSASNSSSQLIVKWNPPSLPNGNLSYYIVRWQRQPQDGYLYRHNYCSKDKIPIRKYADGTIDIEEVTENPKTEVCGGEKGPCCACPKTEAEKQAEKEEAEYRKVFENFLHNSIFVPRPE
Sequence of IGF-I receptor (P08069 741-1367 partner limits assumed, species assumed): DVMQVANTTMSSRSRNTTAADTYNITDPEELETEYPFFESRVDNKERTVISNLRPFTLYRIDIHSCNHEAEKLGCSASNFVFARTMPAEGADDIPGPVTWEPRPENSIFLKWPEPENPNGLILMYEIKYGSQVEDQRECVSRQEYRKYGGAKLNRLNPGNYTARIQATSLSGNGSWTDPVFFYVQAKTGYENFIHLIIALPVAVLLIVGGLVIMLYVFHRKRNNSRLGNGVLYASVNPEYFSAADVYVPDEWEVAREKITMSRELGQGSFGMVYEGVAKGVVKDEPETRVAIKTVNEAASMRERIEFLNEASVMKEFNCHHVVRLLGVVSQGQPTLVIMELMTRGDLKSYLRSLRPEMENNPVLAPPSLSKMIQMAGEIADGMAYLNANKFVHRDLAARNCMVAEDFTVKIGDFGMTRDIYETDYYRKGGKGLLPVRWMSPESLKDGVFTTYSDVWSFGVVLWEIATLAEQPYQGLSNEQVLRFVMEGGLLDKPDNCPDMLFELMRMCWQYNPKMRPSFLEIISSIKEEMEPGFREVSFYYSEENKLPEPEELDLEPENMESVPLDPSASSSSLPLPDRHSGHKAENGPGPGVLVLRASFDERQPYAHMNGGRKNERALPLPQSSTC

For the substance “IGF-II sequence containing amino acid 8-67: amino acid residues 8-67 of the Insulin-like Growth Factor II peptide sequence, SEQ ID NO:21”, the “higher affinity for M6P/IGF II receptor compared to full-length IGF-II” value in series [1] is 2-10 fold. For the same substance, the “decrease in ability to bind IGF-I receptor compared to full-length IGF-II” value in the series with IGF-I receptor is listed as 30 fold.
